test: soluble fraction after stress (log2 fold change); higher = more stays soluble; pooled small domains, quantitative proteomics; details: stress: 50 degC
Outline: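 The stress applied to every library was 50°C. These custom libraries of small protein domains were pooled and measured at high throughput with quantitative proteomics as the read-out. Aggregation propensity is expressed as the base-two logarithm of the fold change in how much of each protein remains soluble. The higher the value, the more of that protein stays in solution.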

Sequence	soluble fraction (log2)
HMNSFGWESFVGEKGVTDTDLRPSGWIVIKDKRLFALTEGTFIEKGVSVEILSVEGNRIVVREIS	-0.249
HMLNQIGVSQKEFDQIHTAIKIALKTSSLTPTGITEKLPKFPPEKTADILRWMADNKEVLLNSEEKYELKT	-0.0315
HMSFDGFSDRLKSVLNSGKYTQKEAAEKINISEYSFTKYLNGRIPQTEILYKIARLYNKSMEWLLTGKDPI	-2.01
HMKETIIPELLQNELDKNSELNDKFNTFSPYKQREFIEYIITAKQEKTQISRLQKVILMILEGRGLNN	-0.204
HMDEFEEGVITYFNSEKGFGFIRESKTKQSVFVHSKQLSSPVQLNDKVKFIVNKGLKGLEATEVSVI	-0.235
HMPKELAPYDILARYYLTVNNSKQSIALLEQYLDKAGSAPAALKAKLLLAGILYPSGNKERAEKLVEEVIK	-0.465
HMDKKIVGVNAGKVWQALNEVTEISIVELAEKLNLSVESTALAAGWLAREDQISIERKNGTIELQRKN	-0.263
HMRKMELTEAAEKLIEEPDVVSAYRNMQQIFQQWREIGPVPREQRDEVWSHFKDLMTQVNRRHQAHFEN	-0.0451
HMLPPHMEVRAIMILDKRPMALMNIEGEGDGLIVSPGYRFGDGRGRVVSITQTKVVVLWAGTSMEL	-2.28
HMINKDNLIEEILKFINTKIADISSNNPLFDIVAKPYISKVVTNNVSKLDKALSLIADDKGMVDADGLLT	-0.292
HMVDDNFGLGEVTDQNYLTVLGRALDLIGWTDEQADSYSLKTFGVPHWDELGRSQAEKLVAHLIGLLKEQM	-0.33
HMKVLFLESIEGSASMGEIKDVANGYARNFLFPNGFAVPATPKNLKNVEELQAKELEIQTERDNWAA	-0.0454
HMIRQETYLLVRKAVGALPVQMRKIIELAMQGKKNAEIAAQLSISEGTVHTLKKTAYKKLRDRLQE	-2.22
HMTQTDINQIETLVHEGNKLAAVKLLMDTAHIGLKEAKDIIDNFFLGKQTDLQAAVAQVQTR	0.123
HMTPQNAAAVLRYLSSGAIKGVGPSTAQRIVEKFGAESLDIIQNKPEELATIRGISLSKALAVSEEYNKQY	-0.202
HMQSEISRIGRILKERRLQLGYTQEYAAEKAGISYSYYTKIERGQQLPSLEVAMVLSKTFSLSMDRWL	-4.77
HMQKNKSVLFKDIVIAFNQNPKKLFNYKQLAADLDIHSEAERMLISQLLNDLKDQNFLEEVERGKYKLKL	0.0237
HMIKKAILPVAGLGTRFLPASKSIPKEMVTVVDRPAIEYVVREAVEAGIEQIILVTHSSKASIENYFDR	-0.187
HMQKTIDWSQVDKEQYLSAMERSPVNDLEIKAILAKALTSDINNRELFMKGLDHSYYFEGYQLFKSE	-0.281
HMSQTDTDAKDARQKILALLSDGEWHQKTELLKIDAPKEAVSNAIRYLVLEELISIDHAKVRA	-0.489
HMDKEKLQEKLLQIFEAEPQKKFQVQDLVKVLDMEGAGQFKFVVQALADLEHNKQIKLSEDDTFSLIVKE	0.0616
HMNETTVPDVINQNISTGKIIIEDADLEYRIQYIPSEKSSSIGTIINSIPIYGKRVKSGTIVDLKVLG	-0.0142
HMNDRERIGKRIAQLRMEAGISQYKLAELTGLAPGNIARIETGKYSTGIDILSKIGDALGYQLDFI	-1.04
HMEAISIYPNPTDNELHLSTSVQEVRIYNMYGIEVTRAANTDRLAVSHLPKGVYLVHADGAVLKMIK	-1.26
HMTKLPLLVELSRIIPTDTWVKKIKFSLGSVEFVGISKSASRLLPIVENSSYFHDTKFIGTIVT	-0.486

Sequence	soluble fraction (log2)
HMIDHLPPQRAAVLAFLQRELVAGRSPSLAEIALAFGFASRNAAQKHVQALVADGLLEQATGRSRGLRLPG	-1.67
HMVSVLGRRIKELRLQNSMTQMQLAKKLGYKGNSLVAGWELGKNYPSVSSIKRLSEIFDTDLMKYVG	-1.65
HMSMVGSVNKQGRPFALLRVDNLLYQVKVGDYLGQNYGRITQIDETQIALREIVQDAAGEWIERPGVLQL	0.00588
HMEPVIELGDRTLPIEITRHRRARRLTLRLAADGSAVRITLPHWARSAEATAFAHARRDWLAAQLAK	0.0378
HMNIQKYFAGREQFIELLEAVGIRTLEQFASADPSTVLPELHQAKRMLKLQTEIPSAPVFREWVNQALS	-0.237
HMQAGNAVEQYPTIGRLEEVTLGRSQPGAPIGERLSTLETVVFKRNFNDDSLFDRTERLKKTILGG	0.0575
HMLPKILVMDGKVNKNALTTLGKDEEWVKKVLRNHNIHSIKDVLLALYDTKGKFQYQLYDDYEK	-0.0783
HMIDRPLTLVEDYERFAGELAKITLRFMLDGRKRFNGRLAGFDEDGKIVLETSFGRFAFSFDEIDSARI	-2.68
HMGAKLTTAQGGTLKVLVKGKKTHTPTIELRDKDPDFPNAKVVQPDINKGNKQIAHGINGVL	0.514
HMEKEKIKEALIGYFEAEPEEKFTVQELADKLKMNKAGQFNFVVQAVAQLEHDKVITLDDEGNFSLVRHE	-0.623
HMLSVRNRMSDVLKSLDDGEFHRFESLFNLEEGRLGVVVTFLAMLELAKEMLVEIVQNESLGPIYLKSR	-0.0774
HMTRLDLQNAFRVLPPEIQPAAVLFFLQERKQREIAKILGIGLPLVKYRIRKARELLAQFLRKEA	-0.241
HMTPELTAEEREVLSLLGDEPRTLAELIAASGRDYAALSVLLMGLELSQAVRQLPGNRYERF	-0.934
HMNDPIESLTPREREVLTLMAEGRTNAAIAAQLVVTEGAVEKHTQHIFAKLGLLPDSAVHRRVKAVLALLS	-1.75
HMRQGHLDLLRQIHALPPSTREVVYLRAFGGLSFREIGDVLGRTETWARVTFYRGKEALRKG	0.0194
HMFFDKIIVDFLADGSRIDKYISTLYPDISRTHIQRLIAEQFILVNDSVVKSNYKLSTNDVVLIHIPEA	-3.33
HMSVNAPMPGKIVNVLVSEGQKVNSGDVLLILEAMKMQNEIAATQAGTVKAINVAAGQSVKVGDALVN	0.108
HMNNSDIDITVGKNSISINNPNRTNIIIYSSNGMLIDSSKNASYKRNLPSGIYIVKSGSSTHKVIV	-0.148
HMLDEIAGQKVRVLEEINNSEGTGKVMYRGVEWMARSVDDAVMAKDSIVTVQSISGVKLMVT	-0.0685
HMSDLLYAHPTEKGFQLVNVTQKVVMVILKTAAPNVYTVKGKNAIVFKEGNSWFYSENHNKKLLNIK	-1.13
HMTEEYAVLWRVARQTLKPEAFDVLWMKYREQLSIAEIAGIMNRSETSVKVMLHRARKNLGTALESS	-1.71
HMQQSVSSLVRRYMLQTIPGINFSLKSTALALNMSDRTLQRKLLSENTSYQIILDDVRKELAIKYLKE	-3.19
HMEKAKVPSVIGMTEANAKRTIRDAGFKVGRVTRVESEAYDKGKVIEQQYEAGSELEKKKPISIVVSKGKK	-0.162
HMKEVELENMIKAKGFKDAAVLVDERSVTVIVESERLAAGDSASIKELVSRGTGVDPQNVVII	-0.107
HMGDTVSGTMLNLKPGVRVVHQIFGPGRVEETTGASLAEFRVTVRFEQKGLKTLLLQYAALQVINSEN	-0.795

Sequence	soluble fraction (log2)
HMKTGHLPVTVIIDGRIISDNLYKTGLSNNWLADQLRKNSIKSSEDVFFAYLNPERKFIYQLRSNS	-1.01
HMNTFKNIFIQEGDLFNLKKNDNQIIFAKEGILINENKKIFRLLNGKIISTNNNRLIGFEFDKIDYNLSN	0.489
HMINLDGIGEKISRLRKEQGVTIRELSEYTGYSVGFLSNLETGKNSPTVESLQRVAEALRTDIIEILTK	-0.312
HMTTTYTVPKVTGMTLEEAREDPDVVGRFTIVEGEKVTSDTVPVGQIVSQEPAAHRQVGEDGLTITVNIS	0.289
HMDDERDRLVQQAMEGLSPALREILLLAYFQRMPYNQIAESLRIPLGTVKSRLHAAVAAFAKRWQELNRS	-0.693
HMDSINIDEETAKLGPNAPQIIDGIKKWGQGLVAKGVWSDEDFDEFKVFAATSSGINALNKIRKYY	0.0428
HMQVEYTRGELIQDLEGGKIVYAGISPSRETPTGEVNFILDSGLTRTLYVTDVSEIEQLLISYDIDPEVKK	-0.0036
HMGTYYTEIIAQLKKEIANGTWKLGERLPGELALAKQFNVSRSSIREALKALAYAGIVESKPGRGTFLLHV	-0.875
HMDTETLIDKYQLNASEAAVLRFMDKNRDSLRDLGIRDVARASYVSTATIVNMAKKIGYSGYSELVFAYGS	-1.09
HMTNTDYPGKVVPVDPDGKTLKPDGDASYNDKPGTKVKTPTVPGYTAEVPNVEVPVGGGDIKVTYHKKPV	0.372
HMPIHAGERLTLRLAGEGREAGQAIGYLEDGTLVIVERARHLIGQDVTVEVTRTLQTAGGRLVFAHLVE	-0.531
HMEDKPITKEQKQAMFALLREHFSGDEGNAVYTAVLEREGLAPGDKIMSSVYDRLIDGINEAIRQKLEAGA	0.00629
HMREVPHGEYEVKIEKLELVESKAGDPMVTVWFKVLAGDYKGSMIFMNQVITKGFQIHIMNEFLR	-0.256
HMVFADRLRALRKKSGLTQDEFSKQTGIGRSAVGMYESGKREPNYTTLSKVARFYHVSTDYLLGRTDTP	-1.04
HMDEPSITYGKVKVQTSLNVRQGPGTQYARIGSLGPNVRIQILGQEGQWYKIKYGNLQGYVHSDYVELEK	0.0784
HMNDMWADITINANGKATLVVHTHEIKYLGLTGHLGKMEINGTAKEPVKDSSGDVVDYYFTFTDLDASMF	0.0763
HMSDKNVYGKYKNVFLSDEEFSELKQFYPNDWSDRIETLSEGIELKGYKYKNYLLAIKKWAEYEGQKAD	-0.0354
HMDVLNPGDKAVTTASWLNFRTGPGMQNKVASVLARNTTVNIIEKSNEWYKVSLANGSTGYVHGMYLSKIT	-0.0937
HMRLDSELVSARLHRFMGTNRKPDGEIVEKIAAILEGHPIETLDAFLQSLNGRKIKSYGFFPTVLRREIAN	-0.319
HMNKNNLRNVSSKIRKSRRVLNLSQAELSKKLDISPSYLNLIESGKRPITVPLLIKLGNILGISLKDL	-1.27
HMNQSAVMAERMKQTKNRILQTAKEIFLEQGYKRTTIRQIVERSGITSGSIYNIFSSKEEIFSALVDDL	-2.65
HMGDADDLTRIKGIGPKLSKTLNELGIYHFRQIAGWQSDEADWVDDYLSFKGRVMREQWIEQAQKFAS	-0.392
HMNEGETLYRLRAGDGRARLDKFLAAALPDISRTRFKGLIESGHVRVGGETITEPAYRVKSEAEVELTVPE	0.0139
HMLEPEVLDLIGQVKSVHHFSVTQSHQLEKLVRHAHTLGFEIAELKSLLASSPNAKSLLSSLDQKLEPLRM	-0.909
HMGESYGPVRRGETLWSIAEKVKPAGVSTQKELAAIYAANPQAFIRGDINLLKAGAELRLPSPEAL	0.172

Reference: the domain aggregation screens of Martell et al. (2025)
